Assay [1] addresses T1, human ST2 (SPR analyte) (human, UniProt Q01638 19-322).
T1 construct: The ST2 reagent injected in SPR; leader is 1-18; also called hu ST2
T1 sequence: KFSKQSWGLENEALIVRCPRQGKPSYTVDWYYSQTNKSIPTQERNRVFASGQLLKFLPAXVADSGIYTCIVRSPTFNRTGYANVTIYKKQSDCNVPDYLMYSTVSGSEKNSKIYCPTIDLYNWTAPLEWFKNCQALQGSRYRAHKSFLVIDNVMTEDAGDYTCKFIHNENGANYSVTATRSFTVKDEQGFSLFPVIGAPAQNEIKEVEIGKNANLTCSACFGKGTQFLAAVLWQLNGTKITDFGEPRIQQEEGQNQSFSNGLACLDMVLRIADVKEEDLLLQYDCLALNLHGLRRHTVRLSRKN
Description: SPR ProteOn XPR-36, captured antibody, ST2 analyte, 25 C.

Assay [2] concerns the target T2, cynomolgus monkey ST2 (SPR analyte) (cynomolgus monkey, UniProt Q01638 19-322 (human entry)).
T2 construct: The cyno ST2 reagent injected in SPR; leader is 1-18; also called cy ST2
T2 chain: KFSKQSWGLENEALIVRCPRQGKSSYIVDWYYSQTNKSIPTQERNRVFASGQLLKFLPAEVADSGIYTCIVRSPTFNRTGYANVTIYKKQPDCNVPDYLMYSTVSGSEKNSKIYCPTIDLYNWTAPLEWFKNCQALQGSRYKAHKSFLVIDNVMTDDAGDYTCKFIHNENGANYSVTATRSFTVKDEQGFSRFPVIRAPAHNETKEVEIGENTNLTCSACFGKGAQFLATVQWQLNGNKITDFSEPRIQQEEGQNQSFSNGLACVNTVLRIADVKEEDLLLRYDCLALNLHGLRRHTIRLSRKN
The assay is described as above.

Assay [3] concerns the target T3, human ST2 on human primary cells (human, UniProt Q01638 19-556).
T3 sequence: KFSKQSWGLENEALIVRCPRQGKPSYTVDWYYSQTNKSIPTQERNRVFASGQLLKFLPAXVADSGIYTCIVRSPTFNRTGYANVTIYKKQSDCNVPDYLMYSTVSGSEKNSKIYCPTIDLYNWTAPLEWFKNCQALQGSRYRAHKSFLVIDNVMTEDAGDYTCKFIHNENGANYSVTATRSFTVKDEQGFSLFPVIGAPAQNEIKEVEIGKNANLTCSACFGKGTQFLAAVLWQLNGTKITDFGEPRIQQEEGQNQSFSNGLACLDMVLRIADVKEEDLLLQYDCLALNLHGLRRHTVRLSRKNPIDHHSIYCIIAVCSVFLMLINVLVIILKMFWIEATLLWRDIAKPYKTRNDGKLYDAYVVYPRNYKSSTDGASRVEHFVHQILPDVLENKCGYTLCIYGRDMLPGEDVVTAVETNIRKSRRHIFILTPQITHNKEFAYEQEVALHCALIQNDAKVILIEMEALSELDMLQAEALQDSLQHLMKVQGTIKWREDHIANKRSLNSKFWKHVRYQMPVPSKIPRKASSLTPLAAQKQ
The assay is described as follows: cell-based or functional assay.

Assay [4] has as its target T4, cynomolgus monkey ST2 on cynomolgus CD4+ T cells (cynomolgus monkey, UniProt Q01638 19-556 (human entry)).
T4 chain: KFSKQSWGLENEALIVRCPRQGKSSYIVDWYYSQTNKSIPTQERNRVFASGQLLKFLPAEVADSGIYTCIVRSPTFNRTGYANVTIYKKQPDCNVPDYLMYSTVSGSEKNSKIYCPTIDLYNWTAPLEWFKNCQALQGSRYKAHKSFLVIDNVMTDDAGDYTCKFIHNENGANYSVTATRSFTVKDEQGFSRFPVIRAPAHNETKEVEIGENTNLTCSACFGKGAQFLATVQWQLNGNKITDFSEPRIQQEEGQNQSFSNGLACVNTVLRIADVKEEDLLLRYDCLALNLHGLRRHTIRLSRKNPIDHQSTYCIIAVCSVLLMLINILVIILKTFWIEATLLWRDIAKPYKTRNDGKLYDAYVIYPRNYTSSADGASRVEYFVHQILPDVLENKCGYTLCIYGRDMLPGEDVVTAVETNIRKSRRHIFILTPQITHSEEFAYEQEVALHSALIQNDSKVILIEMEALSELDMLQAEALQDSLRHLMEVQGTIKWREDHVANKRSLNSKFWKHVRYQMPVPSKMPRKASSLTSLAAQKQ
Description: cell-based or functional assay.

The target of assay [5] is T3, human ST2 on human primary cells. Description: cell-based or functional assay. This is another data set of the same source.
Assay [6] shares this target. Description: cell-based or functional assay. The source holds these as a separate data set.
Assay [7] addresses T1, human ST2 (SPR analyte). The assay is described as follows: SPR Biacore 4000, kd at pH 5.5 against kd at pH 7.4. How it is done:
(§1) The association (5 min) rates at pH 7.4 and dissociation (10 min) rates at pH 5.5 and 7.4 were monitored at a flow rate of 30 uL/min. The reference subtracted data was fit to a 1:1 model in Scrubber.
(SPR reads the build-up and loss of mass on a sensor chip optically.)

In assay [8] the target is T1, human ST2 (SPR analyte). Description: SPR Biacore 3000, captured antibody, ST2 analyte, 25 C.
Assay [9] has as its target T2, cynomolgus monkey ST2 (SPR analyte). The assay is described as above.
Assay [10] addresses T1, human ST2 (SPR analyte). Description: SPR Biacore 4000, association at pH 7.4, dissociation at pH 5.5 (estimated kd). How it is done: as §1
For assay [11], the target named is T1, human ST2 (SPR analyte). The assay is described as follows: SPR Biacore 4000, association at pH 7.4, dissociation at pH 7.4 (estimated kd). How it is done: as §1
Assay [12] has as its target T5, soluble human ST2-FLAG His (human, UniProt Q01638 19-322, limits assumed).
T5 construct: also called human ST2-FH; 6xhistidine tagged human ST2; not shown: FLAG and 6x histidine tags
T5 sequence: T1 sequence
The assay is described as follows: AlphaScreen, biotinylated human IL-33 with human ST2-FH, antibody at 12.5 ug/ml.

The target of assay [13] is T6, biotinylated human ST2-Fc (human, UniProt Q01638 19-331, biotinylated).
T6 construct: also called ST2-Fc fusion protein; not shown: human antibody Fc domain
T6 sequence: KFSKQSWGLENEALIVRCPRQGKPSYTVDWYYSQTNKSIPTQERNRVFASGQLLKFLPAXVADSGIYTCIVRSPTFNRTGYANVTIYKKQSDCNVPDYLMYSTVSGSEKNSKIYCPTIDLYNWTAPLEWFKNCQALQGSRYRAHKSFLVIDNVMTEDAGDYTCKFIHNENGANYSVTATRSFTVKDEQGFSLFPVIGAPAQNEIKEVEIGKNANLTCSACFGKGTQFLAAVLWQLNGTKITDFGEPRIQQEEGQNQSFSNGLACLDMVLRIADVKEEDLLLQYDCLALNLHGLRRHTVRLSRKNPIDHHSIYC
The assay is described as follows: AlphaScreen, IL-33 mediated association of biotinylated human ST2-Fc with human AcP-FH, antibody at 12.5 ug/ml. How it is done:
In the second assay, antibodies were evaluated for the ability to inhibit the IL-33 mediated association of ST2 with the co-receptor AcP. […] The ST2/AcP AlphaScreen was conducted in 8 ul reactions in a 384 well optiplate (Perkin Elmer). […] After the addition of all assay components the plates were incubated overnight in the dark at room temperature. The next day the plates were read on a 2103 Envision multilable reader (Perkin Elmer) using the same parameters as above for the first assay.
(Bead proximity is the source of the signal in Alpha formats.)

The term Kd denotes the equilibrium constant for the complex coming apart. One may read the koff as a measure of how fast the partners let go of each other. As usually defined, the kon is the rate constant with which the complex forms.

Changes are numbered by the printed parent chain.

B1: Ab32 (antibody, human IgG2, kappa, V domains shown)
VH: EVQLVESGGGLVQPGGSLRLSCAASGFTFSTFDMHWVRQATGKGLEWVSSIDTEGDTYYSGSVKGRFTISRENARNSLYLQMNSLRAGDTAVYYCTRGEDWSDDDYYYGLDVWGQGTTVTVSS
VL: NIVMTQTPLSLSVTPGQPASISCKSSQSLLHSDGKTYLFWYLQKPGQPPQLLIYGVSNRFSGVPDRFSGSGSGTDFTLKISRVEAEDVGVYYCMQSLQLFTFGPGTKVEIKR
notes: fully human anti-ST2 antibody
On to B1, for which the Kd in assay [1] worked out at 0.0602 nM; in assay [2] it was 0.0558 nM.

B2: Ab33 (antibody, human IgG2, kappa, V domains shown)
VH: B1 VH with A40V, T41P, V48I, S60P
VL: B1 VL with Y92S, E109D
notes: fully human anti-ST2 antibody
With B2, the figures for the Kd in [1] and in assay [2] were 0.0844 nM and 0.0776 nM, respectively.

B3: Ab2 (antibody, human IgG2, kappa, V domains shown)
VH: EVQLVQSGAEVKKPGESLKISCKGSGYSFTNYWIGWVRQMPGKGLEWMGIIYPGNSDTRFSPSFQGQVTISADKSITTAYLQWSSLKASDTAMYYCARHGTSSDYYGLDVWGQGTTVTVSS
VL: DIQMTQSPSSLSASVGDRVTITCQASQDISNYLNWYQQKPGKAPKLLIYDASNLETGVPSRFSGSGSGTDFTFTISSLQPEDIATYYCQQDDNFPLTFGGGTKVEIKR
notes: fully human anti-ST2 antibody
Regarding B3, the “IC50 of inhibition of human IL-33-induced IL-5 production from human CD4+ T cells” value in [3] was 5.25 nM. Further, the “IC-50, cynomolgus monkey CD4+ T cell IFNγ release assay (IL-33, IL-2 and IL-12p70 stimulation)” value in assay [4] stood at 79.5 pM. In addition, the “IC-50, human eosinophil IL-8 release assay (IL-33 and IL-3 stimulation)” value in assay [5] was determined as 52.8 pM. Besides, the “IC50 of inhibition of IL-33-dependent IFN-γ response of human NK cells (IL-33 10 ng/mL plus IL-12)” value in [6] turned out to be 0.0412 µg/mL. The “pH 5.5/pH 7.4 koff fold change” value in assay [7] came to 8 fold. For the same molecule, the Kd in [8] was determined as 0.0339 nM; in assay [9], 0.0322 nM. The koff in assay [8] was 1.13e-05 s⁻¹; in assay [9], 1.16e-05 s⁻¹; in [10], 0.000238 s⁻¹; in [11], 2.98e-05 s⁻¹. Moreover, the kon was found to be 333000 M⁻¹ s⁻¹ in assay [8] and 360000 M⁻¹ s⁻¹ in assay [9]. Further, the “% inhib ST2-IL33 AS 12.5 ug/ml” value in assay [12] came to 99.2%. In assay [13], the “% inhib ST2-AcP AS 12.5 ug/ml” value worked out at 96.4%.

These data come from patent publication US20140004107A1 (published 2014).
